The record followed here is IntAct's records for PubMed 11278422.

The labels stand for the following.
B1: Apoptosis-stimulating of p53 protein 2 (Homo sapiens), Q13625-2 (parent)
chain: MDLTLAELQEMASRQQQQIEAQQQLLATKEQRLKFLKQQDQRQQQQVAEQEKLKRLKEIAENQEAKLKKVRALKGHVEQKRLSNGKLVEEIEQMNNLFQQKQRELVLAVSKVEELTRQLEMLKNGRIDSHHDNQSAVAELDRLYKELQLRNKLNQEQNAKLQQQRECLNKRNSEVAVMDKRVNELRDRLWKKKAALQQKENLPVSSDGNLPQQAASAPSRVAAVGPYIQSSTMPRMPSRPELLVKPALPDGSLVIQASEGPMKIQTLPNMRSGAASQTKGSKIHPVGPDWSPSNADLFPSQGSASVPQSTGNALDQVDDGEVPLREKEKKVRPFSMFDAVDQSNAPPSFGTLRKNQSSEDILRDAQVANKNVAKVPPPVPTKPKQINLPYFGQTNQPPSDIKPDGSSQQLSTVVPSMGTKPKPAGQQPRVLLSPSIPSVGQDQTLSPGSKQESPPAAAVRPFTPQPSKDTLLPPFRKPQTVAASSIYSMYTQQQAPGKNFQQAVQSALTKTHTRGPHFSSVYGKPVIAAAQNQQQHPENIYSNSQGKPGSPEPETEPVSSVQENHENERIPRPLSPTKLLPFLSNPYRNQSDADLEALRKKLSNAPRPLKKRSSITEPEGPNGPNIQKLLYQRTTIAAMETISVPSYPSKSASVTASSESPVEIQNPYLHVEPEKEVVSLVPESLSPEDVGNASTENSDMPAPSPGLDYEPEGVPDNSPNLQNNPEEPNPEAPHVLDVYLEEYPPYPPPPYPSGEPEGPGEDSVSMRPPEITGQVSLPPGKRTNLRKTGSERIAHGMRVKFNPLALLLDSSLEGEFDLVQRIIYEVDDPSLPNDEGITALHNAVCAGHTEIVKFLVQFGVNVNAADSDGWTPLHCAASCNNVQVCKFLVESGAAVFAMTYSDMQTAADKCEEMEEGYTQCSQFLYGVQEKMGIMNKGVIYALWDYEPQNDDELPMKEGDCMTIIHREDEDEIEWWWARLNDKEGYVPRNLLGLYPRIKPRQRSLA

The variants in one assay derive from B1. The note with it: with yap1_chick YAP1, P46936.
Sequence of yap1_chick YAP1, P46936 (P46936 whole entry): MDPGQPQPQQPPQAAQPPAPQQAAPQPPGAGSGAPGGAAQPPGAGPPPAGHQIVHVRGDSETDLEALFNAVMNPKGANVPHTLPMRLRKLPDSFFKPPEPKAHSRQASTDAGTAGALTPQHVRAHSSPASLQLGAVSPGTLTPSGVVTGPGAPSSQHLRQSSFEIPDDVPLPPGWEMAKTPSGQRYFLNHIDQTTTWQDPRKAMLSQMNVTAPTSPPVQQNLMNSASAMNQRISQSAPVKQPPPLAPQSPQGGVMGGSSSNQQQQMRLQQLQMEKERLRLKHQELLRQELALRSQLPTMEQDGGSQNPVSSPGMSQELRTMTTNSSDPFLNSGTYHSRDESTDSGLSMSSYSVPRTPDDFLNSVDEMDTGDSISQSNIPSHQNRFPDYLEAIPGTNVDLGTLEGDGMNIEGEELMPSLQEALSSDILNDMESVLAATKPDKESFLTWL
For P749A, the “effect of a mutation on the interaction” value is listed as “disrupting interaction”.

In a further assay the parent is B1. The note with it: with yap1_chick YAP1, P46936. The source holds these as a separate data set.
In the case of Y751A, the “effect of a mutation on the interaction” value was “disrupting interaction”.

In a further assay the parent is B1. The note with it: with yap1_chick YAP1, P46936. This is another data set of the same source.
With P747A, the “effect of a mutation on the interaction” value is “decreasing interaction”.

Another assay covers variants of B1. To be noted: with yap1_chick YAP1, P46936. The source holds these as a separate data set.
Turning to Y746A, the “effect of a mutation on the interaction” value is reported as “disrupting interaction”.

The variants in a further assay derive from B1. The note with it: with yap1_chick YAP1, P46936. The source holds these as a separate data set.
On to P748A, for which the “effect of a mutation on the interaction” value was “disrupting interaction”.
